Experimental findings from patent US5262522A, “Receptor for oncostatin M and leukemia inhibitory factor” (Immunex Corporation, priority 1991, dated 1993) are described below.

For test [1], the system named is Recombinant human LIF. The experiment in a line: LIF binding assay (phthalate oil separation, Scatchard) on transfected COS-7 cells. The protocol: Recombinant human LIF is expressed in yeast and purified to homogeneity essentially as described by Hopp, et al., Bio/Technology 6:1204 (1988). The purified protein is radiolabeled using a commercially available enzymobead radioiodination reagent (BioRad). In this procedure 10 μg LIF in 50 μl 0.2M sodium phosphate, pH 7.2, are combined with 50 μl enzymobead reagent, 2 mCi of sodium iodide in 20 μl of 0.05M sodium phosphate pH 7.0 and 10 μl of 2.5% β-D-glucose. After 10 minutes at 25° C., sodium azide (20 μl of 50 mM) and sodium metabisulfite (10 μl of 5 mg/ml) are added and incubation is continued for 5 min. at 25° C. The reaction mixture is fractionated by gel filtration on a 2 ml bed volume of Sephadex® G-25 (Sigma) equilibrated in Roswell Park Memorial Institute (RPMI) 1640 medium containing 2.5% (w/v) bovine serum albumin (BSA), 0.2% (w/v) sodium azide and 20 mM Hepes pH 7.4 (binding medium). […]
The cells were separated from unbound ^125 I-LIF by centrifugation for five minutes at 15,000×g in an Eppendorf microfuge. […] The radioactivity in both parts was then determined on a gamma counter. The determinations of both cell-bound and unbound radioactivity from the two 60 μl aliquots were averaged for subsequent calculations. […]

Test [2] concerns oncostatin M. The experiment in a line: Oncostatin M binding assay (phthalate oil separation, Scatchard) on transfected COS-7 cells. The conditions noted are these: 125I-oncostatin M, compared with non-transfected COS-7 cells. The text has this: Oncostatin M may be purified from cells in which the protein is naturally found, or from cells transformed with an expression vector encoding oncostatin M. One source of oncostatin M is phorbol ester-treated U937 cells, as described by Zarling et al., PNAS U.S.A. 83:9739 (1986). Purification of recombinant oncostatin M is described by Linsley et al., J. Biol. Chem. 264:4282-4289 (1989), which is hereby incorporated by reference in its entirety.
Oncostatin M may be radiolabeled using any suitable conventional procedure, such as the radioiodination procedure employed to radiolabel LIF in Example 1. The radio-iodination of oncostatin M has also been described by Linsley et al., supra.
The resulting radiolabeled oncostatin M may be substituted for radiolabeled LIF (using the same concentrations and other reaction parameters) in the assay procedures described in Example 1 in order to detect proteins and cells that bind oncostatin M. An assay for binding of ^125 I-oncostatin M to cells is also described in Linsley et al., supra.
COS-7 cells transfected with vector(s) encoding gp130 or LIF-R were assayed for the ability to bind oncostatin M. In separate transfections, COS-7 cells were transfected with the following combinations of vectors. […]

B1: LIF-R: human leukemia inhibitory factor receptor fragment encoded by cDNA clone pHLIFR-65 (SEQ ID NO: 6), expressed on COS-7 cells (protein)
chain: QKKGAPHDLKCVTNNLQVWNCSWKAPSGTGRGTDYEVCIENRSRSCYQLEKTSIKIPALSHGDYEITINSLHDFGSSTSKFTLNEQNVSLIPDTPEILNLSADFSTSTLYLKWNDRGSVFPHRSNVIWEIKVLRKESMELVKLVTHNTTLNGKDTLHHWSWASDMPLECAIHFVEIRCYIDNLHFSGLEEWSDWSPVKNISWIPDSQTKVFPQDKVILVGSDITFCCVSQEKVLSALIGHTNCPLIHLDGENVAIKIRNISVSASSGTNVVFTTEDNIFGTVIFAGYPPDTPQQLNCETHDLKEIICSWNPGRVTALVGPRATSYTLVESFSGKYVRLKRAEAPTNESYQLLFQMLPNQEIYNFTLNAHNPLGRSQSTILVNITEKVYPHTPTSFKVKDINSTAVKLSWHLPGNFAKINFLCEIEIKKSNSVQEQRNVTIKGVENSSYLVALDKLNPYTLYTFRIRCSTETFWKWSKWSNKKQHLTTEASPSKGPDTWREWSSDGKNLIIYWKPLPINEANGKILSYNVSCSSDEETQSLSEIPDPQHKAEIRLDKNDYIISVVAKNSVGSSPPSKIASMEIPNDDLKIEQVVGMGKGILLTWHYDPNMTCDYVIKWCNSSRSEPCLMDWRKVPSNSTETVIESDEFRPGIRYNFFLYGCRNQGYQLLRSMIGYIEELAPIVAPNFTVEDTSADSILVKWEDIPVEELRGFLRGYLFYFGKGERDTSKMRVLESGRSDIKVKNITDISQKTLRIADLQGKTSYHLVLRAYTDGGVGPEKSMYVVTKENSVGLIIAILIPVAVAVIVGVVTSILCYRKREWIKETFYPDIPNPENCKALQFQKSVCEGSSALKTLEMNPCTPNNVEVLETRSAFPKIEDTEIISPVAERPEDRSDAEPENHVVVSYCPPIIEEEIPNPAADEAGGTAQVIYIDVQSMYQPQAKPEEKKKKSRSSRSKI
Turning to B1, the “binding of LIF after preincubation with oncostatin M” value in test [1] (cells transfected with pHLIFR-65 and CAV, preincubated with non-radiolabeled oncostatin M (curve D)) was “essentially unchanged”. Further, the “binding of oncostatin M” value in test [2] was “did not bind oncostatin M in any significant amount above that bound by the non-transfected COS-7 cells”.

B2: gp130: truncated human gp130 polypeptide encoded by plasmid B10G (SEQ ID NO: 2), expressed on COS-7 cells (protein)
chain: ELLDPCGYISPESPVVQLHSNFTAVCVLKEKCMDYFHVNANYIVWKTNHFTIPKEQYTIINRTASSVTFTDIASLNIQLTCNILTFGQLEQNVYGITIISGLPPEKPKNLSCIVNEGKKMRCEWDGGRETHLETNFTLKSEWATHKFADCKAKRDTPTSCTVDYSTVYFVNIEVWVEAENALGKVTSDHINFDPVYKVKPNPPHNLSVINSEELSSILKLTWTNPSIKSVIILKYNIQYRTKDASTWSQIPPEDTASTRSSFTVQDLKPFTEYVFRIRCMKEDGKGYWSDWSEEASGITYEDRPSKAPSFWYKIDPSHTQGYRTVQLVWKTLPPFEANGKILDYEVTLTRWKSHLQNYTVNATKLTVNLTNDRYLATLTVRNLVGKSDAAVLTIPACDFQATHPVMDLKAFPKDNMLWVEWTTPRESVKKYILEWCVLSDKAPCITDWQQEDGTVHRTYLRGNLAESKCYLITVTPVYADGPGSPESIKAYLKQAPPSKGPTVRTKKVGKNEAVLEWDQLPVDVQNGFIRNYTIFYRTIIGNETAVNVDSSHTEYTLSSLTSDTLYMVRMAAYTDEGGKDGPEFTFTTPKFAQGEIEAIVVPVCLAFLLTTLLGVLFCFNKRDLIKKHIWPNVPDPSKSHIAQWSPHTPPRHNFNSKDQMYSDGNFTDVSVVEIEANDKKPFPEDL
With B2, the “binding of LIF” value in test [1] (125I-LIF, COS-7 cells, compared with non-transfected COS-7 cells) was “did not bind LIF in any measurable amount above the amount of binding to the non-transfected COS-7 cells”.
